Consider five molecules from patent US20230149462A1 (JUNO THERAPEUTICS, published 2023).

B1: BCMA-25 scFv (scFv)
scFv: EVQLVQSGGGLVQPGRSLRLSCTASGFTFGDYAMSWFRQAPGKGLEWVGFIRSKAYGGTTEYAASVKGRFTISRDDSKSIAYLQMNSLKTEDTAVYYCAAWSAPTDYWGQGTLVTVSSGGGGSGGGGSGGGGSDIQMTQSPAFLSASVGDRVTVTCRASQGISNYLAWYQQKPGNAPRLLIYSASTLQSGVPSRFRGTGYGTEFSLTIDSLQPEDFATYYCQQSYTSRQTFGPGTRLDIK
B2: BCMA-55-scFv (scFv)
scFv: QSALTQPASVSASPGQSIAISCTGTSSDVGWYQQHPGKAPKLMIYEDSKRPSGVSNRFSGSKSGNTASLTISGLQAEDEADYYCSSNTRSSTLVFGGGTKLTVLGSRGGGGSGGGGSGGGGSLEMAEVQLVQSGAEMKKPGASLKLSCKASGYTFIDYYVYWMRQAPGQGLESMGWINPNSGGTNYAQKFQGRVTMTRDTSISTAYMELSRLRSDDTAMYYCARSQRDGYMDYWGQGTLVTVSS
notes: also called BCMA-55-scFV-mFc
B3: BCMA-52-scFv-mFc (Fc fusion)
chain: SYELTQPPSASGTPGQRVTMSCSGTSSNIGSHSVNWYQQLPGTAPKLLIYTNNQRPSGVPDRFSGSKSGTSASLAISGLQSEDEADYYCAAWDGSLNGLVFGGGTKLTVLGSRGGGGSGGGGSGGGGSLEMAEVQLVQSGAEVKKPGESLKISCKGSGYSFTSYWIGWVRQMPGKGLEWMGIIYPGDSDTRYSPSFQGHVTISADKSISTAYLQWSSLKASDTAMYYCARYSGSFDNWGQGTLVTVSS
notes: not shown: mFc portion named in the label
B4: BCMA-26 scFv (scFv)
scFv: EVQLVESGGGLVKPGGSLRLSCAASGFTFSDYYMSWIRQAPGKGLEWVSYISSSGSTIYYADSVKGRFTISRDNAKNSLYLQMNSLRAEDTAVYYCAKVDGPPSFDIWGQGTMVTVSSGGGGSGGGGSGGGGSSYVLTQPPSVSVAPGQTARITCGANNIGSKSVHWYQQKPGQAPMLVVYDDDDRPSGIPERFSGSNSGNTATLTISGVEAGDEADYFCHLWDRSRDHYVFGTGTKLTVL
B5: BCMA-23 scFv (scFv)
scFv: EVQLVESGGGLVKPGGSLRLSCAASGFTFSDYYMSWIRQAPGKGLEWVSYISSSGSTIYYADSVKGRFTISRDNAKNSLYLQMNSLRAEDTAVYYCAKVDGDYTEDYWGQGTLVTVSSGGGGSGGGGSGGGGSQSALTQPASVSGSPGQSITISCTGSSSDVGKYNLVSWYQQPPGKAPKLIIYDVNKRPSGVSNRFSGSKSGNTATLTISGLQGDDEADYYCSSYGGSRSYVFGTGTKVTVL

In this assay the target is T1, human BCMA (human, UniProt Q02223 1-54, limits assumed).
T1 construct: also called B-cell maturation antigen; human BCMA polypeptide
T1 sequence: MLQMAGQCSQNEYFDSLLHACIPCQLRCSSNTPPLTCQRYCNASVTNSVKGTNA
In words: CLIPS peptide epitope mapping (Pepscan). As to the method: Epitopes recognized, e.g., specifically bound by exemplary anti-BCMA scFv clones, were determined based on full discontinuous epitope mapping by Chemical Linkage of Peptides onto Scaffolds (CLIPS; Pepscan Presto BV, Lelystad, The Netherlands; see, e.g., Timmerman et al., (2007) J. Mol. Recognit. 20: 283-329). […] In some aspects, such antibodies recognize a non-linear or linear epitope including residues of such peptide of SEQ ID NO: 160, and in some aspects recognize a non-linear epitope further including residues of CIPCQLR (set forth in SEQ ID NO:159), […] and/or SVTNSVK (set forth in SEQ ID NO:161).
Regarding B1, the binding result is recorded as “binds”. Then B2, with “binds”; and B3, with “binds”; and B4, with “binds”. Then B5, with “binds”.
